Assay results from article PMC4157346 (The Biochemical journal, 2013).

Columns and labels:
[1] = biological target: CXCL8-(1-66) P32G mutant, 15N-labelled (human, 15N-labelled); assay: NMR titration
[2] = biological target: CXCL8-(1-66) truncated monomer (human); assay: NMR titration

## LWTWFEDEFANATGMPPVEKDYSPCLVVTQTLNK [CXCR1 N-terminal domain peptide]
[1]
  Kd: 11 ± 1 µM
[2]
  Kd: 12 ± 2 µM
